{"source": "paper doi:10.1101/142505", "about": "“14-3-3 Negatively Regulates Actin Filament Formation in the Deep Branching Eukaryote Giardia lamblia” (bioRxiv, 2017)", "proteins": {"B1": {"name": "Gl14-3-3-HA (endogenously C-terminally 3XHA tagged Gl14-3-3) (natural protein, Giardia lamblia, UniProt E2RU97 1-248, looked up)", "chain": "MAEAFTREDYVFMAQLNENAERYDEMVETMRKISGMEGELSDKERNLLSVAYKNVIGPRRAAWRIVSSIEAKEKGRQKPNAKRIEQIRVYRQKIEKELSDICNDILKLLQEQFVPRSTNADAKVFYYKMQGDYYRYLAEYSSGEDKEKIAGSALNAYNSAFEISQQLPPTHPIRLGLALNFSVFYYEILASPDRACELARKAFDAAITDLDKLTEESYKDSTLIMQLLRDNLNLWVTDSAGDDNAEEK", "notes": "the single 14-3-3 homolog of Giardia (Gl14-3-3), GL50803_6430; source: Giardia trophozoites, endogenously tagged, in lysate; not shown: 3XHA, C-terminal, kept"}}, "biological_target": "the molecule itself", "test": "native gel or EMSA; TS-actin and associated proteins eluted from StrepTactin resin with 2 mM biotin, run at once on 4-16% NativePAGE, western blot; also samples crosslinked with DSP before lysis"}
{"protein": "B1", "values": [{"measurement": "stoichiometry N", "value": 2}]}
